1 sequence from patent US20170335314 can be followed below.

This data set deals with biotinylated anti-BRD7 Fab fragment (murine IgG1 isotype; bFab) (Mus musculus). The experiment in a line: pulldown. Conditions: streptavidin bead capture with QPCR readout; PBSM (PBS with 1 mM MgCl2), overnight.

In the case of “GCAAAGACATCTGGACACGCCACTAAGTGGAGGTGATCTGTACTTCATTTATGAGATCGCGGCGAGGAGAAGGAGACTTAGAGGC [aptamer 228 (10AptR1)]”, the Kd (as a rule, a measure of binding affinity in units of concentration) was determined as 11 nM.
